B1: 145-2C11 Fab NH 128187 (bispecific antibody)
heavy: not shown
light: DIQMTQSPSSLPASLGDRVTINCQASQDISNYLNWYQQKPGKAPKLLIYYTNKLADGVPSRFSGSGSGRDSSFTISSLESEDIGSYYCQQYYNYPWTFGPGTKLEIKRADAKPTVSIFPPSSEQLGTGSATLVCFVNNFYPKDINVKWKVDGSEKRDGVLQSVTDQDSKDSTYSLSSTLSLTKADYERHNLYTCEVTHKTSTAAIVKTLNRNEC
modifications: not checked
B2: 145-2C11 Fab CH 128187 (bispecific antibody)
heavy: not shown
light: B1 light
modifications: not checked
B3: 145-2C11 Fab CL 128187 (bispecific antibody)
heavy: EVQLVESGGGLVQPGKSLKLSCEASGFTFSGYGMHWVRQAPGRGLESVAYITSSSINIKYADAVKGRFTVSRDNAKNLLFLQMNILKSEDTAMYYCARFDWDKNYWGQGTMVTVSSAKTTAPSVYPLAPACDSTTSTTNTVTLGCLVKGYFPEPVTVIWNSGALTSGVHTFPSVLHSGLYSLSSSVTVPSSTWPSQTVTCNVAHPASSTTVDLKIE
light: not shown
modifications: not checked

The values below come from patent publication US20190292266A1.

The Kd is the free concentration of one partner at which half of the binding sites on the other are occupied at equilibrium, for simple one-to-one binding. Read a high Kd as weaker binding. As usually defined, the koff is a measure of how fast the partners let go of each other. Higher therefore signals a short-lived complex. For orientation: kon means the second-order rate constant of association. A high value points to faster complex formation.

One experiment deals with CD3 (Example 7). Put plainly: SPR, biotinylated CD3 on SA chip, Langmuir 1:1.
Sequence of CD3 (Example 7) (P22646 22-108): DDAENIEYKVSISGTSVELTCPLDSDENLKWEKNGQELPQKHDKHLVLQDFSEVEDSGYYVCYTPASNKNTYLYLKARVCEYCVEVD
Take B1: the Kd turned out to be 10.8 nM, the koff was 0.00306 s⁻¹ and the on-rate constant (kon) came to 284000 M⁻¹ s⁻¹.

As to B2, the Kd came out at 2.14 nM, the koff is 0.00126 s⁻¹ and the kon turned out to be 587000 M⁻¹ s⁻¹.

B3: the dissociation constant (Kd) came to 3.92 nM, the off-rate (koff) came out at 0.0015 s⁻¹ and the kon was determined as 381000 M⁻¹ s⁻¹.

The target in another experiment is PD1 (immobilized target, Example 7). The experiment in a line: SPR, PD1 immobilized on CM5 chip, Langmuir 1:1.
B1 registered a Kd of 4.61 nM, an off-rate (koff) of 0.000229 s⁻¹ and an on-rate (kon) of 49600 M⁻¹ s⁻¹.

On to B2, for which the Kd is 686 nM, the koff stood at 9.45e-05 s⁻¹ and the kon is 138 M⁻¹ s⁻¹.

The molecule B3 yielded a Kd of 36.2 nM, a koff of 0.000282 s⁻¹ and an on-rate constant (kon) of 7780 M⁻¹ s⁻¹.
